Measured values published in FireProtDB.
Where “and” joins values, the source holds several entries; their conditions need not be identical. Equal values may be shown once.

Conditions: whole UniProt chain shown; for Tm / heat capacity change of unfolding / unfolding enthalpy (van 't Hoff) / unfolding enthalpy (calorimetric): Thermal
[1] = Thermus thermophilus, pH 7, Fluorescence, potassium phosphate 50 mM, DTT 1 mM, reversible: yes
[2] = Thermus thermophilus (strain ATCC 27634 / DSM 579 / HB8), pH 5.5, 25 °C, Urea, CD, NaOAc 20 mM, KCl 50 mM, reversible: yes
[3] = Thermus thermophilus (strain ATCC 27634 / DSM 579 / HB8), pH 5.5, CD, Sodium acetate 5 mM, KCl 50 mM, reversible: yes
[4] = Sus scrofa, pH 6.5, DSC, Sodium phosphate 5 mM, reversible: yes
[5] = Thermotoga maritima (strain ATCC 43589 / DSM 3109 / JCM 10099 / NBRC 100826 / MSB8), pH 7.4, 25 °C, GdnHCl, CD, sodium phosphate, transition: 2, reversible: yes
[6] = Sulfolobus acidocaldarius (strain ATCC 33909 / DSM 639 / JCM 8929 / NBRC 15157 / NCIMB 11770), pH 7, DSC, Acetate 10 mM, reversible: Yes
[7] = Sulfolobus acidocaldarius (strain ATCC 33909 / DSM 639 / JCM 8929 / NBRC 15157 / NCIMB 11770), pH 7, DSC, Unknown, reversible: yes

B1: 3-isopropylmalate dehydrogenase wild type, P61495 (protein)
chain: MKVAVLPGDGIGPEVTEAALKVLRALDEAEGLGLAYEVFPFGGAAIDAFGEPFPEPTRKGVEEAEAVLLGSVGGPKWDGLPRKISPETGLLSLRKSQDLFANLRPAKVFPGLERLSPLKEEIARGVDVLIVRELTGGIYFGEPRGMSEAEAWNTERYSKPEVERVARVAFEAARKRRKHVVSVDKANVLEVGEFWRKTVEEVGRGYPDVALEHQYVDAAAMHLVRSPARFDVVVTGNIFGDILSDLASVLPGSLGLLPSASLGRGTPVFEPVHGSAPDIAGKGIANPTAAILSAAMMLEHAFGLVELARKVEDAVAKALLETPPPDLGGSAGTEAFTATVLRHLA
In the case of B1, the denaturant m value (Thermus thermophilus, pH 7, 27 °C, Urea, Fluorescence, Potassium phosphate 50 mM, transition: 3, reversible: yes) is reported as 1.2 kcal/mol/M and 1.41 kcal/mol/M, the Tm (Thermus thermophilus, pH 7, CD, phosphate 20 mM) is reported as 87 °C and the Tm (Thermus thermophilus, pH 7, CD, sodium phosphate, ammonium sulfate 1.0-1.5 M) is reported as 87 °C. The Tm [1] was 30.9 °C, the “heat capacity change of unfolding” value [1] was 1.73 kcal/mol/K and the “unfolding enthalpy (van 't Hoff)” value [1] was 15.8 kcal/mol. The Tm (Thermus thermophilus, pH 7.6, Activity, potassium phosphate 20 mM, reversible: No) was 84.7 °C, the Tm (Thermus thermophilus, pH 7.6, CD, phosphate 20 mM, reversible: No) was 87.4 °C and the Tm (Thermus thermophilus, pH 10.4, CD, NaHCO3 20 mM) was 87 °C.

B2: Ribonuclease H wild type, P29253 (protein)
chain: MNPSPRKRVALFTDGACLGNPGPGGWAALLRFHAHEKLLSGGEACTTNNRMELKAAIEGLKALKEPCEVDLYTDSHYLKKAFTEGWLEGWRKRGWRTAEGKPVKNRDLWEALLLAMAPHRVRFHFVKGHTGHPENERVDREARRQAQSQAKTPCPPRAPTLFHEEA
B2 showed a denaturant m value [2] of 2 kcal/mol/M, an unfolding free energy [2] of 12.8 kcal/mol and a Tm [3] of 86 °C. The “heat capacity change of unfolding” value [3] was 1.8 kcal/mol/K and the “unfolding enthalpy (van 't Hoff)” value [3] was 131 kcal/mol.

B3: Gastricsin wild type, P30879 (protein)
chain: SVIKVPLKKLKSIRQAMKEKGLLEEFLKTHKYDPAQRYRIGDISVALEPMAYLEAAYFGEISIGTPPQNFLVL
In the case of B3, the Tm [4] is reported as 64.5 °C, the “heat capacity change of unfolding” value [4] is reported as 6.1 kcal/mol/K and the “unfolding enthalpy (calorimetric)” value [4] is reported as 256 kcal/mol. For the same protein, the “unfolding enthalpy (van 't Hoff)” value [4] was 131 kcal/mol.

B4: wild type, Q9WZ62 (protein)
chain: MKKLLAVSILLVSIVIFSGAIDEIKSRGYLLVGLSADFPPFEFVDENGNIVGFDVDLAKEIARRLGVELKIVDMTFDGLIPSLLTKKIDVIISGMTITEERKKVVAFSDPYFDAGQVIVVRKDSDFRPKTYEDLVGKTVAVQIGTTGDIEVSKYDGIKVVRFDKFTDAFLELKRGRADAVVLDSATARAFVAKNPDLVISSGVLSSEQYGIAVRKEDTDLLEFINSVLRELKKSPYDVLIEKWFSE
In the case of B4, the denaturant m value [5] is reported as 2.63 kcal/mol/M and 2.86 kcal/mol/M, the “denaturant midpoint (higher = more stable)” value [5] is reported as 5 M and 4.5 M and the unfolding free energy [5] is reported as 12.9 kcal/mol and 13.1 kcal/mol.

B5: Glutathione S-transferase P wild type, P80031 (protein)
chain: PPYTITYFPVRGRCEAMRMLLADQDQSWKEEVVTMETWPPLKPSCLFRQLPKFQDGDLTLYQSNAILRHLGRSFGLYGKDQKEAALVDMVNDGVEDLRCKYATLIYTNYEAGKEKYVKELPEHLKPFETLLSQNQGGQAFVVGSQISFADYNLLDLLRIHQVLNPSCLDAFPLLSAYVARLSARPKIKAFLASPEHVNRPINGNGKN
With B5 the unfolding free energy (Sus scrofa, pH 6.5, 20 °C, GdnHCl, CD, Mes-NaOH 20 mM, NaCl 0.1 M) was 11.6 kcal/mol and 22.5 kcal/mol.

B6: Inorganic pyrophosphatase wild type, P38576 (protein)
chain: MANLKSLPVGDKAPEVVHMVIEVPRGSGNKYEYDPDLGAIKLDRVLPGAQFYPGDYGFIPSTLAEDGDPLDGLVLSTYPLLPGVVVEVRVVGLLLMEDEKGGDAKVIGVVAEDQRLDHIQDIGDVPEGVKQEIQHFFETYKALEAKKGKWVKVTGWRDRKAALEEVRACIARYKG
For B6, the Tm (Thermus thermophilus (strain ATCC 27634 / DSM 579 / HB8), pH 7, CD, HEPES 20 mM, MgCl2 5 mM) was 99 °C and the Tm (Thermus thermophilus (strain ATCC 27634 / DSM 579 / HB8), pH 7, CD, HEPES 20 mM) was 86 °C.

B7: DNA-binding protein 7d wild type, P13123 (protein)
chain: MVKVKFKYKGEEKEVDTSKIKKVWRVGKMVSFTYDDNGKTGRGAVSEKDAPKELLDMLARAEREKK
With B7 the Tm (Sulfolobus acidocaldarius (strain ATCC 33909 / DSM 639 / JCM 8929 / NBRC 15157 / NCIMB 11770), pH 4, DSC, Potassium acetate 0.05 M, KCl 0.3 M, reversible: yes) was 86.8 °C, the Tm (Sulfolobus acidocaldarius (strain ATCC 33909 / DSM 639 / JCM 8929 / NBRC 15157 / NCIMB 11770), pH 6, DSC, KH2PO4 0.01 M, KCl 0.1 M, reversible: yes) was 99.4 °C and the Tm [6] was 90.7 °C. The “heat capacity change of unfolding” value [6] was 0.71 kcal/mol/K, the “unfolding enthalpy (calorimetric)” value [6] was 58.5 kcal/mol and the Tm [7] was 90.7 °C. For the same protein, the “heat capacity change of unfolding” value [7] was 0.71 kcal/mol/K and the “unfolding enthalpy (calorimetric)” value [7] was 58.5 kcal/mol.
